Data as given in the RNAGym collection of RNA variant scans (doi:10.7554/elife.80360).

B1: Hairpin Ribozyme (parent)
chain: GUCCUCUUUCACGUGCGCGUGAAAGAGAGAAGUGAACCAGAGAAACACACGUUGUGGUAUAUUACCUGGUA

Variants of: B1
Assay: self-cleavage, relative activity (ratio to wild type); higher = more cleavage; co-transcriptional

Variant | self-cleavage
G1U A71G | 0.115
U2C G42C | 0.108
U2A U55A | 0.103
U2G G54U | 0.128
U2G A36U | 0.318
C3A G29A | 0.112
C3A G29C | 0.102
C3A G51C | 0.615
G1U U55C | 0.217
U2G U53G | 0.267
C3A U8A | 0.547
G1U U67C | 0.0702
G1U U67G | 0.097
G1U A35U | 0.126
C3A U60A | 0.515
U2C C3A | 0.114
U2C A41U | 0.283
G1U G56C | 0.229
C3A A11U | 0.517
C3A A23G | 0.613
G1U A64G | 0.0823
U2G U60C | 0.373
U2G A35C | 0.477
U2G A35G | 0.213

Variant | self-cleavage
C3A U14C | 0.677
C3A U14A | 0.525
C3A U20C | 0.728
U2C U62G | 0.0944
C3A C46A | 0.219
U2C A31G | 0
U2C A31U | 0.25
U2A A64G | 0.0976
G1U G40A | 0.123
G1U G40U | 0.111
U2A G15A | 0.216
U2C A47C | 0.0817
C3A C10G | 0.631
U2G C50A | 0.15
U2C U5A | 0.118
U2G U52C | 0.346
U2G U52G | 0.458
U2G U52A | 0.33
U2A A59U | 0.141
U2A A59C | 0.0974
U2A A59G | 0.156
U2A G57A | 0.136
C3A U70G | 0.708
C3A U70A | 0.377

Variant | self-cleavage
C3A U70C | 0.675
G1U A44G | 0.0639
C3A G68U | 0.195
C3A G13U | 0.568
U2G A39U | 0.162
U2G A39G | 0.179
U2G U63G | 0.252
U2G U63C | 0.142
U2G A28U | 0.32
U2G A28G | 0.138
G1U U58C | 0.0791
G1U U8C | 0.118
U2C A11U | 0.197
G1U C4A | 0.202
G1U U60A | 0.195
G1U U60C | 0
U2C C37U | 0.113
U2G U8G | 0.471
U2A U9C | 0.233
U2A U9G | 0.179
C3A A30U | 0.16
G1U G32C | 0.0843
G1U G32A | 0.146
U2G U70A | 0.191

Variant | self-cleavage
U2C U52C | 0.0386
U2C U52G | 0.0756
U2C U52A | 0.287
U2G U62A | 0.0977
G1U C66G | 0.117
G1U C66A | 0.242
U2G A44U | 0.0754
C3A G34U | 1.34
U2C C16A | 0.0439
C3G A45U | 0.122
U2C A23G | 0.116
U2C A23U | 0.185
G1U C50A | 0.189
U2C A24U | 0.107
U2C A24C | 0.227
U2G G40C | 0.126
U2G G40U | 0.072
U2C A26C | 0.0664
U2C A26G | 0.121
U2A C38U | 0.14
C3G A36G | 0.255
U2C U14G | 0.075
U2A A41U | 0.54
G1U U53G | 0.227

Variant | self-cleavage
U2G G15U | 0.395
U2G G15C | 0.342
G1U A36U | 0.224
U2A G21U | 0.271
U2C C46G | 0.0408
G1U C38U | 0.127
G1U C38G | 0.0981
U2C U53A | 0.322
U2A A11C | 0.288
U2C G13A | 0.217
G1U C18U | 0.121
U2A U62C | 0.0796
U2A U62A | 0.194
U2A C16A | 0.221
U2A C16U | 0.259
C3A A64U | 0.249
U2A G32A | 0.0985
U2A A26U | 0.253
C3A A61G | 0.186
U2C U58A | 0.235
G1U G34C | 0.143
G1U G68A | 0.124
G1U G68C | 0.0827
G1U G68U | 0.051

Variant | self-cleavage
U2A A31G | 0.334
U2A A31U | 0.163
U2G A61U | 0.191
C3A C38U | 0.416
U2A C37U | 0.23
C3A C65G | 0.314
C3A G15U | 0.761
C3A G15A | 0.524
G1U G27U | 0.199
C3A C16A | 0.677
C3A U53A | 0.662
C3A U53C | 0.664
G1U C46U | 0.0565
G1U C46G | 0.16
G1U A30G | 0.105
G1U C16G | 0.127
G1U C16U | 0.0937
U2A G27U | 0.124
C3A A22U | 0.702
C3A A22G | 0.706
G1U U63G | 0.0703
U2A U63G | 0.0633
U2C G56C | 0.166
U2A G68A | 0.0992

Variant | self-cleavage
U2A G68U | 0.133
U2A G29C | 0.105
U2A G29A | 0.0918
U2A A36C | 0.143
U2G A41G | 0.38
C3A A49U | 0.0975
U2G G32A | 0.0684
U2G G32C | 0.155
U2G G32U | 0.119
U2G C18U | 0.378
U2G G42U | 0.0398
C3A A26U | 0.653
C3G A41G | 0.193
U2A G69U | 0.151
U2C U7A | 0.119
U2A C65A | 0.222
U2G U14C | 0.277
G1U A26G | 0.314
U2G G57A | 0.169
U2C G69U | 0.114
U2G C4G | 0.165
C3A C6G | 0.455
C3G A11C | 0.137
C3G A11G | 0.18

Variant | self-cleavage
U2G G19C | 0.338
U2C C4A | 0.1
U2C C4U | 0.0249
U2C C4G | 0.0947
U2C U55A | 0.0763
U2G G34U | 0.984
U2A C18G | 0.212
G1U U14G | 0.184
G1U A49G | 0.234
G1U C6G | 0.228
G1U C6A | 0.138
U2A A45U | 0.0686
U2A G19A | 0.216
U2A G19C | 0.106
U2G C3G | 0.785
U2A U60A | 0.175
G1U G15C | 0.0726
G1U G15U | 0.102
U2C G32U | 0.183
U2A C66U | 0.127
U2A C66G | 0.161
U2A U52G | 0.203
U2A C3G | 0.127
U2G A71U | 0.283

Variant | self-cleavage
U2C G21A | 0.0868
C3G A39U | 0.114
C3G A39G | 0.108
C3A A28U | 0.689
C3A G57A | 0.131
U2A U53A | 0.303
U2A U53C | 0.292
U2G U67G | 0.194
C3A G27A | 0.27
C3A G27U | 0.15
C3A G40U | 0.194
G1U G69C | 0.0943
G1U G69U | 0.101
U2G C66A | 0.147
U2G C38U | 0.24
U2G A11G | 0.306
U2G A11U | 0.295
U2G A11C | 0.267
U2C G57A | 0.175
C3A G25U | 0.406
U2A A30G | 0.442
U2C A61G | 0.0293
U2A C50A | 0.219
U2G A23G | 0.318

Variant | self-cleavage
U2G A23C | 0.289
G1U A31U | 0.0996
C3A A59U | 0.126
G1U U2A | 0.11
U2A U33A | 0.077
G1U C48U | 0.155
U2C G15U | 0.117
U2C G15A | 0.126
C3A G17A | 0.785
C3A G17C | 0.375
U2G G29U | 0.137
C3A A36G | 0.712
C3A A36U | 0.319
G1U C12G | 0.171
G1U C12U | 0.17
U2A C4G | 0.0724
U2C C48G | 0.108
U2C C48U | 0.0586
C3A G42A | 0.146
C3A G42U | 0.249
U2A A23U | 0.167
U2G G27C | 0.112
U2G U5A | 0.288
U2G U5C | 0.271

Variant | self-cleavage
U2G G68U | 0.2
U2G G68C | 0.135
U2G G68A | 0.166
U2C A28U | 0.0802
U2A U70G | 0.224
U2A U70A | 0.331
U2A A49U | 0.0799
U2C G54A | 0.134
U2A A47U | 0.0626
U2G A45G | 0.118
U2C A22U | 0.296
U2C U20G | 0.0615
U2C U20A | 0.25
C3G A23U | 0.28
C3G A23G | 0.126
G1U C37G | 0.0694
G1U C37U | 0.0964
G1U C37A | 0.158
C3A A31C | 0.144
C3A A31U | 0.155
U2C A45G | 0.0514
U2C A45C | 0.0982
U2C U67A | 0.0712
C3G A22U | 0.246

Variant | self-cleavage
G1U A41C | 0.0514
G1U A41U | 0.0959
C3A A47U | 0.112
U2A G51U | 0.228
U2G A43C | 0.115
G1U A28G | 0.0771
C3G A47U | 0.0452
U2G U33C | 0.0578
U2G U33G | 0.171
U2A G54U | 0.119
U2A C46A | 0.143
U2C | 0.171
U2A | 0.259
U2G | 0.348
C3A A41G | 0.7
G1U C65A | 0.0897
C3A U55G | 0.193
C3A U55C | 0.261
C3A C4A | 0.204
G1U U62C | 0.172
G1U U62G | 0.163
U2C A43G | 0.167
U2C U63A | 0.115
G1U U7C | 0.0995

Variant | self-cleavage
U2G G56A | 0.0909
U2C U8C | 0.236
C3A A24C | 0.775
U2C G17U | 0.1
C3A C18G | 0.602
U2G C46G | 0.12
G1U U5C | 0
U2A U67G | 0.158
U2A U67C | 0.0778
C3A C37U | 0.543
U2C A71G | 0.125
U2C A71U | 0.2
U2G G25A | 0.224
U2G G25U | 0.359
U2C A36G | 0.212
U2A A39U | 0.127
C3A U63A | 0.0798
U2A G17A | 0.274
C3G A64C | 0.129
C3G A64G | 0.126
C3G A44G | 0.15
U2G C10A | 0.258
C3G A49C | 0.0939
C3G A49U | 0.188

Variant | self-cleavage
C3A A71G | 0.715
C3A G19A | 0.59
U2G U55C | 0.168
U2G C12A | 0.304
U2G C12U | 0.321
C3A U52G | 0.538
U2A A43G | 0.138
C3A G21C | 0.489
U2A A22G | 0.175
U2A A22C | 0.341
U2A G25C | 0.171
G1U G29U | 0.154
G1U G29C | 0.109
G1U G29A | 0.08
C3G A35C | 0.36
U2C G29A | 0.0747
U2G A26U | 0.238
U2G A26C | 0.153
C3G A26C | 0.276
G1U A59U | 0.195
G1U A59C | 0.183
G1U U52A | 0.0595
